Source: patent publication US20170320956A1 (KYMAB, published 2017)
Substitutions are numbered along the chain they refer to.

Key:
mouse LIGHT = biological target: T1, mouse LIGHT (mouse, UniProt Q9QYH9 72-239, limits assumed); assay: SPR ProteOn, mAb captured on anti-mouse IgG
T1 construct: also called murine LIGHT
T1 sequence (looked up): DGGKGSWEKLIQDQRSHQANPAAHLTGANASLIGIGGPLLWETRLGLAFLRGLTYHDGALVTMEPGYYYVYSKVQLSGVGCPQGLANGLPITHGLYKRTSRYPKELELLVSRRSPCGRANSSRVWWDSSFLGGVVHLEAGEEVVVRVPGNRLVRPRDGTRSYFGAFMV

[1] = biological target: human LIGHT-214E, full length, expressed on the surface of CHO-S cells (human, UniProt O43557 1-240); assay: flow cytometry, CHO-S cells expressing hLIGHT-214E
[2] = biological target: T2, recombinant human LIGHT-214K, FLAG-tagged extracellular domain (human); assay: SPR ProteOn, mAb captured on anti-mouse IgG, LIGHT 256 nM, 25 C
T2 construct: the IgK leader peptide is marked only by underlining (not visible here), so its residues were not removed; Trimer
T2 chain: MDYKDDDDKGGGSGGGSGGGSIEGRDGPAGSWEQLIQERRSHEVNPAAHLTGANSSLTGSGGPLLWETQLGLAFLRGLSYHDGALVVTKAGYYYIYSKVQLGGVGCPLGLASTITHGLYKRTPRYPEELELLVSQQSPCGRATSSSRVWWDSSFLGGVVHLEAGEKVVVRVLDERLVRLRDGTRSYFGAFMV
Method: (§1) SPR analysis was carried out using the ProteOn™ XPR36 Array System (BioRad). Anti-mouse IgG (GE Healthcare BR-1008-38) was immobilised on a GLC biosensor surface using amine coupling, the surface was then blocked using 1M ethanolamine. […] Apparent affinities for the LIGHT-antibody interaction were determined using the 1:1 model inherent to the ProteOn XPR36 analysis software. The assay was run using HBS-EP (Teknova) as running buffer and carried out at 25° C.

[3] = biological target: T3, recombinant human LIGHT-214E, FLAG-tagged extracellular domain (human); assay: HTRF competition, LTβR-Fc binding to Flag-hLIGHT-214E
T3 construct: Trimer; Biotinylated in some assays
T3 chain: T2 chain with K166E
Method: (§2) The following methods were carried out with a titration of inhibitor in order to establish the clone potency as measured by IC50 values in the assay. 5 μl of Flag-tagged hLIGHT (in-house) diluted to 2.5 nM final concentration (10 nM working concentration) in HTRF buffer with 5 μl of a titration of antibody purified from hybridoma supernatant diluted in HTRF assay buffer from 300 nM final (1200 nM working concentration) was pre-incubated for 1 hour at room temperature. To wells used to define total binding, 5 μl of LIGHT (10 nM working, 2.5 nM final) and 5 μl of hybridoma maintaining media (HMM,)) were added. To wells used to define non specific binding (receptor only) 10 μl of HMM was added. Total and non specific binding wells were pre-incubated for 1 hr at RT in the same plate as wells containing titration of inhibitor.
(§3) LIGHT receptor was diluted in HTRF assay buffer and added to all wells, 5 μl/well of HVEM-Fc or LTβR-Fc (R&D systems) at 1.2 nM for HVEM (0.3 nM final) and 0.4 nM for LTβR (0.1 nM final).

[4] = biological target: T3, recombinant human LIGHT-214E, …; assay: cell-based or functional assay
[5] = biological target: T4, recombinant cynomolgus monkey LIGHT, FLAG-tagged extracellular domain (cynomolgus (Macaca fascicularis), UniProt E9NVF7 59-240); assay: SPR ProteOn, mAb captured on anti-mouse IgG, LIGHT 256 nM, 25 C, apparent affinity
T4 construct: extracellular domain; also called cynomolgus LIGHT; cyno LIGHT
Method: as §1

[6] = biological target: T3, recombinant human LIGHT-214E, …; assay: as above
Method: as §1

[7] = biological target: T3, recombinant human LIGHT-214E, …; assay: HTRF competition, HVEM-Fc binding to Flag-hLIGHT-214E
Method: as §2, §3

- binding result (mouse LIGHT): no binding
- binding result [1]: binds
- binding result [2]: no binding (tested: 256 nM)
- IC50 [3]: 2.53 nM
- HT29 IL-8 release, IC50 [4]: 1.42 nM
- Kd [5]: 2.82 nM
- Kd [6]: 1.03 nM
- IC50 [7]: 1.28 nM
B1: 117C06 (purified from hybridoma supernatant) (antibody, V domains shown)
VH: QVQLVQSGAEVKKPGASVKVSCKASGYTFVNFGISWVRQAPGQGLEWMGWISVYSGNTNYAQKLQGRVTLTTDTSTTTAYMELRSLRSDDTAVYYCARHNWNDYWGQGTLVTVSS
VL: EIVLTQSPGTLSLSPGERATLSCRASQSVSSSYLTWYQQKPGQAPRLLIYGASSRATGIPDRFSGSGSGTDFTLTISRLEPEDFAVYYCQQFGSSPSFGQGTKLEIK
notes: Murine constant / human variable chimeric IgG, kappa, Protein G purified from hybridoma supernatant
